IntAct's records for PubMed 10393177

B1: Stress-activated protein kinase jnk-1 (Caenorhabditis elegans), Q8WQG9 (parent)
chain: MEERLSTTSSYPSHPGRSVEEDHNTLLASSSISSIIRGTRGHLNNFIESVGNWLVPSSSGRDDDAVSLDSCQSVYSPVRHHINSGTGGGILMEPSSIHVPENYYSVTIGEAQMVVLKRYQNLRLIGSGAQGIVCSAFDTVRNEQVAIKKLSRPFQNVTHAKRAYRELKLMSLVNHKNIIGILNCFTPQKKLDEFNDLYIVMELMDANLCQVIQMDLDHERLSYLLYQMLCGIRHLHSAGIIHRDLKPSNIVVRSDCTLKILDFGLARTAIEAFMMTPYVVTRYYRAPEVILGMGYKENVDVWSIGCIFGELIRGRVLFPGGDHIDQWTRIIEQLGTPDRSFLERLQPTVRNYVENRPRYQATPFEVLFSDNMFPMTADSSRLTGAQARDLLSRMLVIDPERRISVDDALRHPYVNVWFDEIEVYAPPPLPYDHNMDVEQNVDSWREHIFRELTDYARTHDIYS

Variants of: B1
Details: with jun_human JUN

| Variant | effect of a mutation on the interaction |
| --- | --- |
| K148R | disrupting interaction |
